Data as given in the nanobody polyreactivity screen of Harvey et al. (2022).

Assay: yeast display, Sf9 membrane polyspecificity reagent, FACS + sequencing; frameworks hold sequencing errors
Summary of the method: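 Genes from sorted yeast were amplified by colony PCR, read by MiSeq 2 × 250 sequencing and filtered on CDR length. These cells carried a synthetic nanobody library in Saccharomyces cerevisiae BJ5465 and were sorted by FACS into low and high (top ~1%) gates on anti-HA and streptavidin fluorescence. Polyreactivity is labelled according to the gate of origin.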

Sequence | polyreactivity (PSR sort gate)
QVQLVESGGGKLQAGGSLRLSCAASGIILYVYAMGWYRQAPGKARELVAAITWSGGSTYYADSEKGRFTISRDNAKNTVYLQMNSLKPEDTAVYYCAVDVHTSADASLPQEYDYWGPGTQVTVSS | low polyreactivity
QVQLVESGGGLVQAGGSLRLSCAASGSILVPNAMGWYRQAPGKERELVAGISANGGSTYYADSVKGRFTISRDNANNTVYLQMNSLKPEDTAVYYCNARLYWDWYGDDYWVQGTQVTVSS | low polyreactivity
QVQLVESGGGLVQAGGSLRLSCAASGSTFGGYVMGWYRQAPGKERELVATITQGDGSTYYADSVKGRFTISRDNAKNTVYLQMNSLKPEDTAVYYCAAYGWYDLYYWEYDYWGQGTQVTVSS | high polyreactivity
QVQLVESGGGLVQAGGSLRLSCAASGSTFYVYAMGWYRQAPGKERELVASITRGGGTYADSVKGRFTISRDNAKNTVYLQMNSQKPEDTAVYYCNARWQRSTGGRQRYDYWGQGTQVSVSS | high polyreactivity
QVQLVESGGGLVQAGGSLRLSCAASGNTFSLYAMGWYRQAPGKERELVAAITWITGSTDYADSVKGRFTISRDNAKNTVYLQMNSLKPEDTAVYYCAADGDFSWFYSYETGWIEYDYWGQGTQVTVSS | low polyreactivity
QVQLVESGGGLVQAGGSLRLSCAASGINFVKYTMGWYRQAPGKERELVAAITWTVGSTYYADSVKGRFTISRDNAKNTVYFQMNSLKPEDTAVYYCAARYYYWGQGTQVTGSS | high polyreactivity
QVQLVESGGGLVQAGGSLRLSCAASGSTFIPNAMGWYRQAPGKERELVATIRSGGGRTYYADSVKGRFKISRDNAKNTVYLQMNSLKPEDTAVYYCAAGYYLSVQVYRFDYWGQGTQVTVSS | high polyreactivity
QVQLVESGAGLVQAGGSLRLTCAPSGSIFNIYSMGWYRQAPGKDRELVATITGIADSTYYADSVKGRFTISRDNANNTVYLQMNILKPEDTAFYYCAADIYVAEYDYWGQGTQVTVSS | low polyreactivity
QVQLVESGGGLVQAGGSLRLSCAASGSTFDYNAMGWYRQAPGKERELVAAISSTGGSTYYADSVKGRFTISRDNAKNTVYLQMNSLKPEDTAVYFCARYYAIVSGYYDDGYWGQGTQVTVSS | high polyreactivity
QVQLVESGGCLVQAGGSLRLSCAASGSTFKTYTMGWYRQAPGKERELVAAITWSGGRTYYADSGKGRFTISRDNAKNTVYLQMNSLKPEDTAVYYCAADWGEEYTRDDYCGQGTQVTVSS | low polyreactivity
QVQLVESGGGLVQAGGSLRLSCAASGSIFYYYAMGWYRQAPGKERELVAAISTGGGSTYYADSVKGRFTISRDNAKNTVYLQINSLKPEDTAVYYCAAPWGYYSSFTDDYWGHGTQVTVSS | low polyreactivity
QVQLVESGGGLVQAGGSLRLSCAASGSTYALNAMGWYRQAPGKDRDLVDAISRRGGSTYYADSVKGRFTISRDNAKNTVYLQMNSLKPEDTAVYYCAARNQSQRTGYDFWGQGTQVTVSS | high polyreactivity
QVQLVESGGGLVQAGGSLRLSCASSGPIIFAYAMGWYRQAQGKEREFVAAISDNDGSTYYADSVKGRFTISRDNAKNSVYLQMNSLKPEDTAVYYCNADLGYVYDYWGQGTQVTVSS | low polyreactivity
QVQLVESWGGLVQAGGSLRLSCDASGSTFIPKDMGWYRQAPGKERELVAAITVSGDDTYYADSVKGRFTISRDNAKNTVYIQMNILKPEVTAVYYCAAEWGLYVGQYEYCGQGTQVTVSS | low polyreactivity
QVQLVESGGGVVQAGGSLRLSCAASGFIFEYYPMGWYRPAPGKERELVAAISWSGGSTYYADSVKGRFTISRDNAKNTVYLQMNSLKPEDTAVYYCAAGRYFHHPTSYYYWGQGTQVTVSS | high polyreactivity
QVQLVESGGGLGQAGGSLRLSCAASGSIFYYYAMGWYRQAPGKERELVASITSSGGTTSYADSVKGRFTISRDNAKNTVNLQMNSLKPEDTEVYYGNAQVYRYRIGYDYWGQGTQVTVSS | low polyreactivity
QVQLVESGGGLVQAGGSLRLSCAAYGFTFVDFVMGWSIQAPGKERELVAAITTSGTRTSYADSVKGRFTISRDNAKNTVYLQLNSLKPEDTAVYYCNADHKSIYPKYRGRFYYWGQGTQVTVSS | high polyreactivity
